These results are taken from patent US20260248946A1 (TUOJIE BIOTECH SHANGHAI, published 2026).

A word on the EC50: it is the concentration giving half of the maximal effect. A higher EC50 goes with a need for much substance. As usually defined, the Kd is the concentration at which binding is half-saturated.

The target in experiment [1] is T1, human CD79B-His protein (Cat. #29750-H08H, Sino Biological) (human, UniProt P40259 29-159).
T1 construct: also called human CD79B protein; CD79B protein
T1 sequence (looked up): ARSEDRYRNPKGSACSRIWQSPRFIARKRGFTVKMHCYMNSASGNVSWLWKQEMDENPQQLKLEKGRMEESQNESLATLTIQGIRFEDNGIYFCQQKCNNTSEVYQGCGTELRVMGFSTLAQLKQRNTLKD
Briefly: Biacore T200, antibody captured by anti-human capture antibody on CM5, 1:1 Langmuir fit; EC50. The text has this: Experimental procedures: human antibody capture antibodies were covalently coupled to a CM5 biochip according to the method described instructions of the human antibody capture kit for affinity capture of a certain amount of CD79B antibody.
Statistics and analysis of data: data were fitted by BIAevaluation version 4.1, GE software using a (1:1) Langmuir model to obtain affinity values.
(Surface plasmon resonance follows binding to a sensor surface in real time, without labels.)

The target of experiment [2] is T2, human CD79B on the surface of cells (DoHH2 / DOHH-2, WSU-DLCL2) (human, UniProt P40259 29-229).
T2 construct: whole, on cells; also called CD79B protein on the surface of DoHH2 cells; DoHH2 cell
T2 sequence (looked up): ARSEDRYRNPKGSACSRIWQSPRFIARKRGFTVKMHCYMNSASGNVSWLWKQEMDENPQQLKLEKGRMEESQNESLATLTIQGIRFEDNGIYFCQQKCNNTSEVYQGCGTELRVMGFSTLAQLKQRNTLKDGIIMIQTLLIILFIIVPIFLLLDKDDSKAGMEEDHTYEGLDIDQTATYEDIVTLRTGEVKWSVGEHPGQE
Briefly: FACS on DoHH2 cells.

Experiment [3] has as its target T3, fusion protein of human CD79B extracellular domain (ECD) and His tag (human, UniProt P40259 29-159).
T3 construct: also called human CD79B ECD-His; Human CD79B-His protein
T3 sequence: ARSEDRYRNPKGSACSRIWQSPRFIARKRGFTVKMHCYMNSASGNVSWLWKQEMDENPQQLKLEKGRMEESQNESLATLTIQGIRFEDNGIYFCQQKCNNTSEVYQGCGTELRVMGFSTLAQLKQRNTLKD
Nature of the experiment: ELISA on Human CD79B-His protein. (In general: An ELISA detects its analyte on a solid surface through an enzyme-linked reagent.)

Experiment [4] concerns the target T3, fusion protein of human CD79B …. Briefly: SPR, Human CD79B-His protein.

B1: hAb015-10 (antibody, human IgG1, kappa, V domains shown)
VH: EVQLVQSGAEVKKPGSSVKVSCKASGSSFSSYGINWVKQAPGQGLEWIGEIFPRSGNTYYNEKFEGRATLTADKSTSTAYMELRSLRSEDTAVYYCAKGDLGDFDYWGQGTTVTVSS
VL: DFVMTQTPLSLPVTPGEPASISCRSSQSIVHSDGNTYFEWYLQKPGQSPKLLIYKVSNRFSGVPDRFSGSGSGTDFTLKISRVEAEDVGVYYCFQGSHVPWTFGGGTKVEIKR
notes: Humanized antibody; also called hAb015-10 humanized antibody; humanized mAb015
On to B1, for which the EC50 in experiment [1] was determined as 0.38 nM; in experiment [2], 0.4 nM; in experiment [3], 0.05 nM. Moreover, the affinity in experiment [4], expressed as Kd, was 1.5 nM.
